Earlier results on 1 substance are cited in PMC3100173.

In the data set the target is OmpF (Escherichia coli) (UniProt P02931).
UniProt P02931, sequence (P02931 23-362): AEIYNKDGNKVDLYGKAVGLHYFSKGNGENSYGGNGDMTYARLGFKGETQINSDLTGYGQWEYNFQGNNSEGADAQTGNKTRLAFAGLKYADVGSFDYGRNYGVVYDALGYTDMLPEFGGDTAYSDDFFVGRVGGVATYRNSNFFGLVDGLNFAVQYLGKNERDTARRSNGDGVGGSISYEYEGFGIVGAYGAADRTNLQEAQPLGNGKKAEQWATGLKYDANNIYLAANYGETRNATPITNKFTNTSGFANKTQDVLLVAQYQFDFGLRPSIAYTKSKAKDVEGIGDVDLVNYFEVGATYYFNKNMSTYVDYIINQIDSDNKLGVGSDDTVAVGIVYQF

Turning to Colicin N (from UniProt P08083), the Kd is 200 µM.
